Assay results from US20130295106A1 (ONCOMED PHARMACEUTICALS, published 2013).

What was measured:
Test in all cases: flow cytometry, HEK293 cells transiently co-transfected with FZD expression vector and GFP
[1] = molecular target: T1, human FZD4 expressed on transfected HEK293 cells (human, UniProt Q9ULV1 37-537)
T1 sequence: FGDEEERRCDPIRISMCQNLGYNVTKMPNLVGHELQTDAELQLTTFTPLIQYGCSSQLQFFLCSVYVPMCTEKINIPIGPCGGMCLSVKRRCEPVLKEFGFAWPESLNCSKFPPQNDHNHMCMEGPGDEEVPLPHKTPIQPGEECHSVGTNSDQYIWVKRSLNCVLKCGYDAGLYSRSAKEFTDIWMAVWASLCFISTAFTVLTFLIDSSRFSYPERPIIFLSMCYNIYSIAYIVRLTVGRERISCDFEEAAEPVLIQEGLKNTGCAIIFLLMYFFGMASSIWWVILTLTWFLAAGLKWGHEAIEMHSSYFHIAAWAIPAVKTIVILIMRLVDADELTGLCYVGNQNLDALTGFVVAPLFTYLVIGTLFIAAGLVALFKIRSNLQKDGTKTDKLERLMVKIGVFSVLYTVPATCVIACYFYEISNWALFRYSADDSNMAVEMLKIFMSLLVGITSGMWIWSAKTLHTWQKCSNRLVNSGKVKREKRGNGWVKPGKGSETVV
Method: (§1) To measure antibody binding to FZD by flow cytometry HEK293 cells were co-transfected with FZD expression vectors and the transfection marker GFP. Twenty-four to forty-eight hours post-transfection, cells were collected in suspension and incubated on ice with anti-FZD antibodies (10 μg/ml unless otherwise indicated) or control IgG to detect background antibody binding. The cells were washed and primary antibodies detected with Fc domain-specific secondary antibodies conjugated to a fluorescent chromophore (e.g. phycoerythrin conjugated anti-human IgG). Labeled cells were then analyzed by flow cytometry to identify anti-FZD antibodies that specifically recognize cell surface expression of FZD protein. Monoclonal antibodies 18R5 and 18R8 recognized FZD on transfected cells. As shown in FIG. 1 and FIG. 2, both 18R8 and 18R5 bind to multiple FZD including FZD1, FZD2, FZD5, FZD7, and FZD8. To examine the relative ability of 18R8 and 18R5 to bind to each FZD protein, titration analysis was conducted wherein the amount of antibody in the binding reaction was varied (FIG. 2).

[2] = molecular target: T2, human FZD9 expressed on transfected HEK293 cells (human, UniProt O00144 23-591)
T2 sequence: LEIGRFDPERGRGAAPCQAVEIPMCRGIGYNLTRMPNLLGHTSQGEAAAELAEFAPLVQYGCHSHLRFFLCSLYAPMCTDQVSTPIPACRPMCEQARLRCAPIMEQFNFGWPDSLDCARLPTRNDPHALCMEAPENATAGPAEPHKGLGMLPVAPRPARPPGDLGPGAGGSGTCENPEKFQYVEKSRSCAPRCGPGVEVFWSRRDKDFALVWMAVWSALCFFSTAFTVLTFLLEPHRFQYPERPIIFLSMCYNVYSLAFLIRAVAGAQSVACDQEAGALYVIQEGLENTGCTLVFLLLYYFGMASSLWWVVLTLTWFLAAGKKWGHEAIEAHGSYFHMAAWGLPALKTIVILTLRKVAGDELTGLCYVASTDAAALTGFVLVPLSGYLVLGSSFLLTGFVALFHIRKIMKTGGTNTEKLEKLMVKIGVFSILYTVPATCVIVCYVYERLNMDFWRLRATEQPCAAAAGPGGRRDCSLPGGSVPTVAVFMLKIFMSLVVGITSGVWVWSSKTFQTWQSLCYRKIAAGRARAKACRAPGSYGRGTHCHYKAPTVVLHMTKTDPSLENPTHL
Method: as §1

[3] = molecular target: T3, human FZD3 expressed on transfected HEK293 cells (human, UniProt Q9NPG1 23-666)
T3 sequence: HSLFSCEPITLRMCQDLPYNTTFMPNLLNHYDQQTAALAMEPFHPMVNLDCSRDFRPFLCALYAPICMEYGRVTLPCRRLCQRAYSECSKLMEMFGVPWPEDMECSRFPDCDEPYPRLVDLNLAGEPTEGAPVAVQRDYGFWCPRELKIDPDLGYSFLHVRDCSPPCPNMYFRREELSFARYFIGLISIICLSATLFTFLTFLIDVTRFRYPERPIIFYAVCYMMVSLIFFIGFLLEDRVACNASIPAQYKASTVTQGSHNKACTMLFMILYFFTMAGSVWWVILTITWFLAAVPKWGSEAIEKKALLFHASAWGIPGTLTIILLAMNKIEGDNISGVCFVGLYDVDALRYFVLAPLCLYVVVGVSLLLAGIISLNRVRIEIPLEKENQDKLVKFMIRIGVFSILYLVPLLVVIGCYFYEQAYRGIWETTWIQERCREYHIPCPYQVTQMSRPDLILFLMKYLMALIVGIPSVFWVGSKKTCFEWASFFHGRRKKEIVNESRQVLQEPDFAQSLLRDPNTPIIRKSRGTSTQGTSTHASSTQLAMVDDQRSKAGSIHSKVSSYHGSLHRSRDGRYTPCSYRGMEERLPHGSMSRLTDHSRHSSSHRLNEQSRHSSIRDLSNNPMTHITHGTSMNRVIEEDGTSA
Method: as §1

binding result [1]: no binding (tested: 10 ug/ml)
binding result [2]: no binding (tested: 10 ug/ml)
binding result [3]: no binding (tested: 10 ug/ml)
B1: 18R8 IgG antibody (human IgG2, lambda) (antibody, V domains shown)
VH: EVQLVESGGGLVQPGGSLRLSCAASGFTFSHYTLSWVRQAPGKGLEWVSVISGDGSYTYYADSVKGRFTISSDNSKNTLYLQMNSLRAEDTAVYYCARNFIKYVFANWGQGTLVTVSS
VL: DIELTQPPSVSVAPGQTARISCSGDKLGKKYASWYQQKPGQAPVLVIYEKDNRPSGIPERFSGSNSGNTATLTISGTQAEDEADYYCSSFAGNSLEVFGGGTKLTVLG
notes: Expressed in CHO cells, protein A purified; also called 18R8 IgG2 antibody; anti-FZD antibody 18R8
